Data: US20150239980A1 (NEOTOPE BOSCIENCES, published 2015)
Each block holds one binder with its values, some of them ahead of it.

Key:
[1] = target: T1, recombinant human laminin 511 (Biolamina) (human, UniProt O15230 36-3695; P07942 22-1786; P11047 34-1609); assay: SPR, Biacore T200
T1 construct: negative control; also called laminin 10 (α5β1γ1)

[2] = target: T2, recombinant human laminin 411 (Biolamina) (human, UniProt Q16363 25-1823; P07942 22-1786; P11047 34-1609); assay: SPR, Biacore T200, Fc-tagged MCAM IgG1-2A captured by anti-Fc, laminin 411 as analyte, steady state
T2 construct: also called laminin 8
T2 sequence (P07942 22-1786, chain 2 of 2): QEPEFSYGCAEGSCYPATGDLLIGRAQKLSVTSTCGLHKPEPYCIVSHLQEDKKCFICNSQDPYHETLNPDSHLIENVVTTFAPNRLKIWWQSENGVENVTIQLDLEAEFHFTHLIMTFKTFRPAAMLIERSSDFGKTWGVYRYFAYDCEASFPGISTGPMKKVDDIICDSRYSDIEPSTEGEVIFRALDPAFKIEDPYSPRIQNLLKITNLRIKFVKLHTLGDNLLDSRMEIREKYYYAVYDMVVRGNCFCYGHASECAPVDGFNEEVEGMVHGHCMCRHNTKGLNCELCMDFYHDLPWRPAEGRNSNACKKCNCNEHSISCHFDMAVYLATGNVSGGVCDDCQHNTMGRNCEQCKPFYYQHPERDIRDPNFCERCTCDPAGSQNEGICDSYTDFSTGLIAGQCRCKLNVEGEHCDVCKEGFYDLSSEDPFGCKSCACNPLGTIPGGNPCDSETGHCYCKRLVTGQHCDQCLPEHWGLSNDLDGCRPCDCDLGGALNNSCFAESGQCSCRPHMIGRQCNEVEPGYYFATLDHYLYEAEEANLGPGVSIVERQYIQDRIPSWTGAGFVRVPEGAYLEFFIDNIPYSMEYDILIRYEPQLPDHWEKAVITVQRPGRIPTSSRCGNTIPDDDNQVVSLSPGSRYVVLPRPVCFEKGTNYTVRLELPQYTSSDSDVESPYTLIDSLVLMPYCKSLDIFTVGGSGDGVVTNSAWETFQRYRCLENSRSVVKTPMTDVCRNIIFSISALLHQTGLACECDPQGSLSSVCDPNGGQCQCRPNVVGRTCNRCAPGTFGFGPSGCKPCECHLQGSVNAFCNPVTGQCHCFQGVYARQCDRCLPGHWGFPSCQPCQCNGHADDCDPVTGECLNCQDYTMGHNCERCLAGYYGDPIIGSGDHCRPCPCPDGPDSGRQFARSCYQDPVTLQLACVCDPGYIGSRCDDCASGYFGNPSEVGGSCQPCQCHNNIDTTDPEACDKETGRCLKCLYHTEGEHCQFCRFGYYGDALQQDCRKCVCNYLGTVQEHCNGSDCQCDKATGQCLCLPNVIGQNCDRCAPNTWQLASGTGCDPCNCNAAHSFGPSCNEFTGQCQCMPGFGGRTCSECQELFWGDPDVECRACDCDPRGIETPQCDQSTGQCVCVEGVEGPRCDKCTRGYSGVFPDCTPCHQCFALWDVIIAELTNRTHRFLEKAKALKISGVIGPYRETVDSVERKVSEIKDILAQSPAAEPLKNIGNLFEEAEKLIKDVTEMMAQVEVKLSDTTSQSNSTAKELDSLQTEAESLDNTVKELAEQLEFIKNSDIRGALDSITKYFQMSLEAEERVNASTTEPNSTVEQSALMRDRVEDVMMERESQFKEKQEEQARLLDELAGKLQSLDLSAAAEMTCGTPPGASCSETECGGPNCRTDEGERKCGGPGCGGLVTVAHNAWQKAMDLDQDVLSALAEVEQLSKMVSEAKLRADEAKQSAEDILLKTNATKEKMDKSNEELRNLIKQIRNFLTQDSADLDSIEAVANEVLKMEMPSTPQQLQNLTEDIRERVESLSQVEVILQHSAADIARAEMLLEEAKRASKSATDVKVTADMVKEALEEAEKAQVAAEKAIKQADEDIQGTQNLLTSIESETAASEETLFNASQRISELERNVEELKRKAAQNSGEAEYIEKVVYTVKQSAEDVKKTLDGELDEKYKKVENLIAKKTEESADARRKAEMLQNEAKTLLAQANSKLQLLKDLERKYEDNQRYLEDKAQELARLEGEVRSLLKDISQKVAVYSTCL
T2 sequence (P11047 34-1609, chain 3 of 2): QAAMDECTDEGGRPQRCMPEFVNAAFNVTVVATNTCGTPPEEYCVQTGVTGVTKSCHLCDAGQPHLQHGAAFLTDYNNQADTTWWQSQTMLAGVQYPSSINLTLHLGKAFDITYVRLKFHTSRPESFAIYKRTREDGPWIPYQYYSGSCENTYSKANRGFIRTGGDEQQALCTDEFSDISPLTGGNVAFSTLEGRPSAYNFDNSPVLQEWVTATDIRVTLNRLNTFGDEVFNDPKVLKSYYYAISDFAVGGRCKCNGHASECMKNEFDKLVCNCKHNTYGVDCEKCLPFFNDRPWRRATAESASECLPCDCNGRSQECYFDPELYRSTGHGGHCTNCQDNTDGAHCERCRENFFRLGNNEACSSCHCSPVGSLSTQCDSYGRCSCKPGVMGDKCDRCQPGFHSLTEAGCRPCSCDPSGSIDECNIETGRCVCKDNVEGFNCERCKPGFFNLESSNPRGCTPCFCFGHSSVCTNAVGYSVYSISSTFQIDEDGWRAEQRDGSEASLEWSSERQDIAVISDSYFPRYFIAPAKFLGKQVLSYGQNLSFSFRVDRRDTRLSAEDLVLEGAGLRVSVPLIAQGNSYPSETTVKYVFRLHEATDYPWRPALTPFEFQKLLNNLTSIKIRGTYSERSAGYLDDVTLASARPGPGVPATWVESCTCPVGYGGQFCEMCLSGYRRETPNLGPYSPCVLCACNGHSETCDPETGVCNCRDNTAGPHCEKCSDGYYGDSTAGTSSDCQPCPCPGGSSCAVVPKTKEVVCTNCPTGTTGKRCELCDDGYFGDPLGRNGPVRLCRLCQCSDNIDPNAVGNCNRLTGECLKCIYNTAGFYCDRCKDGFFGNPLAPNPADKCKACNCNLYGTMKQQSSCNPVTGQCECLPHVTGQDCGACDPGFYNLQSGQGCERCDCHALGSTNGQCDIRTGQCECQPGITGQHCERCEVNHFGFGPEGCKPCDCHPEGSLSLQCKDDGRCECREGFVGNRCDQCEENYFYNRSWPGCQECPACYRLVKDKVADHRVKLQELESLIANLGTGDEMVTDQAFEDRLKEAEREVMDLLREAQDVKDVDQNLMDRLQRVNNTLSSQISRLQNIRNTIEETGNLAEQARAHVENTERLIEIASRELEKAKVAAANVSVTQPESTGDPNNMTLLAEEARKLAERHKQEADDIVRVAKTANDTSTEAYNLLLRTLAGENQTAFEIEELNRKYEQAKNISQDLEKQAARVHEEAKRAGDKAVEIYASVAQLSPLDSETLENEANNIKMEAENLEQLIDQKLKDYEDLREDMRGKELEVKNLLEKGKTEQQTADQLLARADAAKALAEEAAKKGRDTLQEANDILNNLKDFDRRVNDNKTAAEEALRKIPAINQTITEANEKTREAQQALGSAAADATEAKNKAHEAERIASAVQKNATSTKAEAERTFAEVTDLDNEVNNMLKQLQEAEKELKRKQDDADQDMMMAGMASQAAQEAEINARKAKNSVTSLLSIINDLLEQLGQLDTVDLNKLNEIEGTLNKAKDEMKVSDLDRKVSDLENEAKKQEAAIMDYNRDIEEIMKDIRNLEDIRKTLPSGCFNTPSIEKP
Description: (§1) The binding affinity of the human laminin-α4 to human MCAM IgG1-2A was measured by Surface Plasmon Resonance on a Biacore T200 machine. Human Fc-specific F(ab′)₂ IgG (Jackson Laboratories) was immobilized on a CM5 chip using amine coupling. The four flow cells of the CM5 chips dextran surface are activated by a 7 min injection of freshly prepared 1:1 50 mM NHS: EDC at a flow rate of 5 μl/min. 70 μl IgG solution (pH 4.5) was injected for 3 min to a density of up to 3 000 RU. The coupling is then blocked by a 7 min injection of 1M ethanolamine to deactivate residual reactive sites. Recombinant human Fc-tagged MCAM IgG1-2A in degassed and filtered HBS-P buffer containing 12 mg/ml BSA and 12 mg/ml carboxy-methylated dextran sodium salt was captured by anti-Fc IgG to a capture level 1560 RU. Recombinant human Fc-tagged MCAM IgG1-2A was centrifuged at 14 000 rpm for 5 min at 4° C. before injection for 20 min at a flow rate of 5 μl/min over the anti-Fc IgG containing surface. Flow cell 1 was left free of IgG to serve as a control surface. One flow cell was used to capture recombinant human IgG1 Fc (R&D systems) to serve as a negative control. […] Buffer injections served as negative control. Data evaluation: Data from the buffer injections and the control surface were subtracted to remove artifacts. […]

[3] = target: T3, Recombinant human laminin-α4 (R&D systems) (human, UniProt Q16363-2 826-1816); assay: SPR, Biacore T200, Fc-tagged MCAM IgG1-2A captured by anti-Fc, laminin-α4 as analyte, 1:1 model
T3 construct: also called laminin α-4 chain
T3 sequence (looked up): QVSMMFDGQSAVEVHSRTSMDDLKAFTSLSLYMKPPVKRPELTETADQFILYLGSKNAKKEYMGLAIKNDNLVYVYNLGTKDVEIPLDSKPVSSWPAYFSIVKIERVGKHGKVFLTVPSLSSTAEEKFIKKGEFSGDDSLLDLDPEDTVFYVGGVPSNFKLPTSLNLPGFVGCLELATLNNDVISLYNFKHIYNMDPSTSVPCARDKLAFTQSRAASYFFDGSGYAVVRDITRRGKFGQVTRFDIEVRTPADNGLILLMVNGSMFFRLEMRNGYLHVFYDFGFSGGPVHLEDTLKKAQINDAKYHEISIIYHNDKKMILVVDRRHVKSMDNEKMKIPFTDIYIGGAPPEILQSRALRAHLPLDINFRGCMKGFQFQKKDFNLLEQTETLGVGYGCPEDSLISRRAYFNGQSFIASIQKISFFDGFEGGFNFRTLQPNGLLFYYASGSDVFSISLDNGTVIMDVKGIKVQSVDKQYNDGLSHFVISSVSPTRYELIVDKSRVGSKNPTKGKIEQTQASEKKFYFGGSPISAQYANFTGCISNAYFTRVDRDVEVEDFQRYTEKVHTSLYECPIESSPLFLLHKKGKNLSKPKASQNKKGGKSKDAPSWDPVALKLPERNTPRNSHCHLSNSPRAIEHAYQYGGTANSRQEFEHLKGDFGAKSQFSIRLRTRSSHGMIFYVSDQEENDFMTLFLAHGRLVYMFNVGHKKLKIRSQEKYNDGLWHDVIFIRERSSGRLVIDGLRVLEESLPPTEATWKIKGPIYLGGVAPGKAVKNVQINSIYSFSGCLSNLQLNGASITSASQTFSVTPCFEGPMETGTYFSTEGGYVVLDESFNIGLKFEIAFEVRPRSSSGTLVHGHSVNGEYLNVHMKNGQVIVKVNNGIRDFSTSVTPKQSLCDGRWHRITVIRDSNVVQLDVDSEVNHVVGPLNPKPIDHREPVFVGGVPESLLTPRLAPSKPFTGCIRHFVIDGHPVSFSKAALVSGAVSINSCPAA
Description: as §1

[4] = target: T4, recombinant hMCAM-His (human, UniProt P43121 24-559); assay: competitive ELISA on hMCAM-His, competitor biotinylated rodent or chimeric 2120; vs rodent 2120
T4 construct: not shown: His tag
T4 chain: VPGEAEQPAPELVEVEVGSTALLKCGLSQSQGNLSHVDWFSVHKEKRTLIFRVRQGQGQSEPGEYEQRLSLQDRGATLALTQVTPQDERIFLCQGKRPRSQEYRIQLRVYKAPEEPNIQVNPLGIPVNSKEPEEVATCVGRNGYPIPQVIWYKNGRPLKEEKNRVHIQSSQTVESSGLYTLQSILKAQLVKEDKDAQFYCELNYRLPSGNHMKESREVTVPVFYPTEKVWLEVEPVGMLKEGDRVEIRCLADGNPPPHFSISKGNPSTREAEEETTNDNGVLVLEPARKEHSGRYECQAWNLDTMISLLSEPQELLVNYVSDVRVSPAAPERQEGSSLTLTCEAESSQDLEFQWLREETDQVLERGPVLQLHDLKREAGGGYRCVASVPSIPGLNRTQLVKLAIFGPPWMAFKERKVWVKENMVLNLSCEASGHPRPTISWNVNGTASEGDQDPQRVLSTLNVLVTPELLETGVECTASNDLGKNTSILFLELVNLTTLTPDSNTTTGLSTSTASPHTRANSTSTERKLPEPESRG
Description: (§2) ELISA plates were coated with recombinant hMCAM-His, and blocked with casein buffer to prevent non-specific binding. Biotinylated rodent or chimeric antibody was added at a subsaturating concentration, in the presence or absence of 3× increasing concentrations of unlabeled competitor (humanized antibody, rodent, or chimeric). After washing to remove unbound antibody, streptavidin HRP was added to allow detection of the biotinylated antibody. The ELISA was developed with TMB substrate and the OD450 was measured. The IC50 of the unlabeled competitor was determined using the GraphPad Prism5 software.

[5] = target: T5, human MCAM (melanoma cell adhesion molecule) expressed on transfected CHO cells (human, UniProt P43121 24-646); assay: laminin/FACS on hMCAM CHO cells, competitor laminin 411; Expt#2; vs rodent 2120
T5 construct: also called hMCAM; CD146
T5 chain: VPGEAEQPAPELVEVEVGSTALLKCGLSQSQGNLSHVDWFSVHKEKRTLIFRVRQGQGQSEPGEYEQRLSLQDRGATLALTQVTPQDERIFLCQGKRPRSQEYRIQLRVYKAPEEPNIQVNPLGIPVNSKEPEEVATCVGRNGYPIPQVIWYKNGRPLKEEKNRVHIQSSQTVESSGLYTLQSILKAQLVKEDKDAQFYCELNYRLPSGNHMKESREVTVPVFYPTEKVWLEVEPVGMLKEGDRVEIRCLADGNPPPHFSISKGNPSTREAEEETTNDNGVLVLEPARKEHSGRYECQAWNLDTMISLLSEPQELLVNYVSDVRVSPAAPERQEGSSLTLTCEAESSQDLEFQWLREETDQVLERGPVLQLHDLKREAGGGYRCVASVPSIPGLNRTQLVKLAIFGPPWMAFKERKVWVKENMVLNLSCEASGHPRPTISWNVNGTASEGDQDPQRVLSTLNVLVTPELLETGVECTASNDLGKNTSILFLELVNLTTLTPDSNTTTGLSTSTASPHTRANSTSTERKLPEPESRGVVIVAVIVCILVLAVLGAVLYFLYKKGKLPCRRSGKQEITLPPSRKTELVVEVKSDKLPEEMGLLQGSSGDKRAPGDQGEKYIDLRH
Description: (§3) Following incubation for 30-45 minutes, the cells were washed and anti-laminin conjugated to AF650 (NovusBio) was added to detect the bound laminin. The cells were run on a flow cytometer to measure the laminin binding signal.

[6] = target: T5, human MCAM (melanoma cell adhesion …); assay: laminin/FACS on hMCAM CHO cells, competitor laminin 411; Expt#1; vs rodent 2120
Description: as §3

[7] = target: T4, recombinant hMCAM-His; assay: summary of ForteBio and competitive ELISA on hMCAM-His; vs rodent 2120
Description: as §2
(§4) The affinities were measured using the ForteBio Octet Red. Anti-human Fc sensors were used to capture the humanized antibodies, and several concentrations of hMCAMHis analyte were used to determine the affinity using a 1:1 fitting model.

[8] = target: T5, human MCAM (melanoma cell adhesion …); assay: laminin/FACS blocking assay, % inhibition of laminin 411 binding to hMCAM-expressing CHO cells against antibody concentration; blocked ligand: laminin 411
Description: as §3

[9] = target: T4, recombinant hMCAM-His; assay: ForteBio Octet Red, hMCAM-His analyte; Forte column 1; vs rodent 2120
Description: as §4

[10] = target: T4, recombinant hMCAM-His; assay: ForteBio Octet Red, hMCAM-His analyte; Forte column 2; vs rodent 2120
Description: as §4

[11] = target: T5, human MCAM (melanoma cell adhesion …); assay: summary of laminin blocking assay on hMCAM CHO cells, competitor laminin 411; vs rodent 2120
Description: as §3

[12] = target: T4, recombinant hMCAM-His; assay: competitive ELISA on hMCAM-His, competitor biotinylated rodent or chimeric 2107; Expt. #2; vs rodent 2107
Description: as §2

[13] = target: T5, human MCAM (melanoma cell adhesion …); assay: laminin/FACS on hMCAM CHO cells, competitor laminin 411; Expt#2; seems to serve as the reference of the 2107 family in this column
[14] = target: T4, recombinant hMCAM-His; assay: competitive ELISA on hMCAM-His, competitor biotinylated rodent or chimeric 2107; Expt. #1; vs rodent 2107
Method in brief: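 Plates coated with recombinant hMCAM-His and casein-blocked; biotinylated rodent or chimeric antibody at subsaturating level competed by 3× serial concentrations of unlabeled humanized, rodent or chimeric antibody. Bound biotinylated antibody detected with streptavidin-HRP/TMB at OD450; competitor IC50 fitted.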

binding result [1]: no binding (tested: 5-175 nM)
Kd [2]: 66 nM
Kd [3]: 60 nM
B1: Recombinant human Fc-tagged MCAM IgG1-2A (human MCAM domains 1 and 2, amino acids 19-242) (Fc fusion)
chain: PRVAGVPGEAEQPAPELVEVEVGSTALLKCGLSQSQGNLSHVDWFSVHKEKRTLIFRVRQGQGQSEPGEYEQRLSLQDRGATLALTQVTPQDERIFLCQGKRPRSQEYRIQLRVYKAPEEPNIQVNPLGIPVNSKEPEEVATCVGRNGYPIPQVIWYKNGRPLKEEKNRVHIQSSQTVESSGLYTLQSILKAQLVKEDKDAQFYCELNYRLPSGNHMKESREVT
notes: also called human MCAM IgG1-2A; MCAM Fc domains 1 and 2; not shown: human Fc tag

fold over rodent (competitive ELISA) [4]: 2.4 fold
fold over rodent (blocking, laminin/FACS) [5]: 1.5 fold
fold over rodent (blocking, laminin/FACS) [6]: 1.2 fold
fold reduction in affinity compared to the rodent [7]: < 2 fold
IC50 (read off the curve) [8]: ~0.6 µg/mL
fold over rodent (Forte affinity) [9]: 1.1 fold
fold over rodent (Forte affinity) [10]: 1.2 fold
fold reduction in potency compared to the rodent [11]: < 2 fold
B2: h2120_VH5 + h2120_VL3 (antibody, human IgG1, V domains shown)
VH: QVTLKESGPVLVKPTETLTLTCTVSGFSLTSNAVSWVRQPPGKALEWIAAISSGGTTYYNSAFKSRLTISRDTSKSQVVLTMTNMDPVDTATYYCARRYGYGWYFDFWGQGTLVTVSS
VL: DIQMTQSPSSLSASVGDRVTINCKASQNIYNSLAWYQQKPGKAPKVLIFNANSLQTGIPSRFSGSGSGTDFTLTISSLQPEDFATYYCQQFYSGYTFGQGTKLEIK
notes: also called h2120VH5VL3; VH5VL3

fold over rodent (competitive ELISA) [12]: 1.01 fold
fold over rodent (blocking, laminin/FACS) [13]: 1 fold
fold over rodent (competitive ELISA) [14]: 0.68 fold
B3: chimeric 2107 (antibody, V domains shown)
VH: QVQLKESGPGLVQSSQTLSLTCTVSGFSLTSNGVSWVRQPPGKGLEWIAAISSGGSTYYNSAFKSRLSISRNTSKSQVLLKMNSLQTEDTGMYFCARHRPFYFDYWGQGVMVTVSS
VL: DIQVTQSPSLLSASVGDRVTLNCKGSQNIYKSLAWFRLKRGEAPKLLIYDANSLQTGIPSRFSGSGSGTDFTLTITSLQPEDVATYFCQQYYSGYTFGAGTKLELK
